According to a protein production outcome set (Wang et al. 2014):

Test: label from the status in PepcDB records

Sequence	protein production
MKRLTPYSWLILIIFSSCLTGNKVASTDKQIESLLSQMTLEEKIGMLHSNTMFSSTGVPRLGIPDLHYSDGPHGVRFEGVANGWESARWDNDACSYLPALSALASTWNRDLAQLYGEVLGAECKARGKHVSLAPGVNIHRSLLNGRNWEYFSEDPFFSGELAVPYIQGVQSQGVASCVKHFALNSQAYNQYKVSVEVDERTLHEIYLPAFEAAIQRGGAMAAMAAYNKVRGLWCTESPYLLDTLLRDELGFDGLVVSDWNAVHNTERTALCGMDVEMGTSIKENGKYAFNKYYLADPLLKKVRNGEIPEEAVNKKVRNILKLMIRLDLIGQAPYDTTGMAAKLAIPAHTKAAREIAEESLVLLKNSKDMLPLDPAQYKNVAVIGANATEVFAAGGGSTKLKAKYEVTPLEGLQNLLDGKARIEYAPGYQLSKKAYKVGHWFTNEFDKSDEELYKKAINTAAQAELVIYIGGTSHEHGSDCEGYDKPNLKLPYQQDRLLKGILEVNPNTVVVLISGGPVEIGEWYNDATALLHGSFLGMEGGNALARTLFGEVNPSGKLTTTWCKRLEDMPDHVFGEYPGINDTVRFKEGLMVGYRYFDTYRVVPLFEFGYGLSYTTFTYSNIKMKPVWKDSDTEFAVSFTVTNTGKRYGQEIAQLYLHQNKCSVERPFKELKGFTKVGLKPGESKQVTIKLPRRALQYYDTESKRWKDEPGMFTVLIGASSRDIKLQKDFELKK	failed
MPHASQIVISISLFLMSMVAVAQKTIDIKKFNLVAEQVTELKKTDLVLSLKQLTTFENVLSALTVEQNLVYFKLLAEIQIEQNRYSAAKKTANEGLIIGRRLASPSILMSELLYLRGFSFESLGNIPRATKEYKKGLEVAESLHNKIQVALGLINLGAIAYLTDNYKRSLVLLNDAYNIAGQTDDEELKGTANTELGILYSLLRQGDQSMAYYQQSYKHFKKAGLLLSAHNSLHNIAITHIREKRYEQAITVFKTIIAESNKDTSSDSMFTVYSGMAWAHLKKKDSNIDAAHQYLLLAKQYLQFTEKVDYRLQFYFDEASVLYKLERFDEVLISIARIEKILVNHEDMPKRKRKGYVNIINLKAKVFYKQEKFKQAYETKSRVIALTEKLYENEDNRSIAQVRLKLEAEQADKQNEILNNQKSRYEASFNEAKLENEEQRIYLIISALLALAFAWVLVKLIQSQKKLKVALNVDKLTGTANRRRLMVKSQQAFELAKVKQYHLSLMMINIDHFKGINDSLGHSIGDEVLAKVAFIGANMVRKNDVFGRFSGGEFMVCLPKTNLKLAMETAECIRAAINEHTWQLNNIEKISVSIGVATLTDDSELISLVKRAEEQLYQAKASGKNKVCAQ	failed
MNTFGIFLTISAYTFFSWAYSKKKTPILNPVLLSILLIALILKVGNISYEKYMESARFLSFLLGPAVVSLAIPLYKQINIVKEYKKEIATGIITGGTTAILSAVYILKAFNSPEILQRTIAPKSVTTAIAMGVSEKIGGIPELTAVLVILTGILGNALAPELLDFFKIKDRVARGLATGVSSHGLGTARIILEDELSGAVSGLAMALNGVYTAFLLPLIIELIV	failed
AFLNKHFAKKNHNISVDELSHALELTDKAELTEENNILEGIIRFGGETAKEVMTSRLDVVDLDIRTPFKDVIQCIIDNAYSRIPIYSGTRDNIKGVLYIKDLLPHLNKGDNFRWQSLIRPAYFVPETKMIDDLLRDFQANKIHIAIVVDEFGGTSGIVTMEDIIEEIVGEIHDEYDD	not failed
MANDGYFEPTQELSDETRDMHRAIISLREELEAVDLYNQRVNACKDKELKAILAHNRDEEKEHAAMLLEWIRRCDPAFDKELKDYLFTNKPIAHE	not failed
MNARHARYPFLGDARDAVEEAGVDLARVVTEDDAVVERARERVVSALTDGTIGEPAATVSTRVEVLSYPVARVLVSIVDESVLVRKYATAEADAAYDRFTADESTDTDLKSVSDTTRVSRDTLLSEFDLRAHVHATPDAHTVDVPTYLLLASSLRDDDWRLVNRALDDGRVPVTDAELDTLIREAIRERVADGLPLSVPDQIADALDEPVAAIQDALADLDLTREIDTVVPELFPPCMKHLLDQVQRGDHLPHHARFAITSFLSNVGLSTDEIVDIYEVNPGFGEEMTRYQTDHIQGDSSPTEYTAPSCATMKAYGNCVNPDDLCDAINHPLSYYEVKLDDGDDDDLADWRDREDDDSPD	failed
MEITIFGKGNMGQAIGHNFEIAGHEVTYYGSKDQATTLGEIVIMAVPYPALAALAKQYATQLKGKIVVDITNPLNFDTWDDLVVPADSSAAQELQQQLPDSQVLKAFNTTFAATLQSGQVNGKEPTTVLVAGNDDSAKQRFTRALADSPLEVKDAGKLKRARELEAMGFMQMTLAASEQIGWTGGFAVVK	failed
MITLARTLLLFACLLPSIHVKAEPSLQPHYKIATEADDVVTRVLFDAVSTEFGVSVEYINYASFDAILDAVANEDADFAANITYTDTRAERFSYSRPTNIEYTYLYGLSDSTLDDISRVGVPQNTIYSELIKQYHPELKQVPYKGHNEAVRLLQTGLVDGVVDAINQLKPMLLEGFDAKMLNDQISIKPVSIISKKGHHLEELDTFASFIHGEAVQKQLREQIALYQFELRRSALRDAIKLLPVDLKEPIRIKMESIFPYVVYNPDGTVQGMTADIVLQSCEILDLNCVIISEPNESWESMYRQFMKGEFDILAPLTVSRERHEFSYFPRPHYSPASVMVKRLGYKPNTYSHVSQLISERIGVVKDDFFDQMMTQLLPLKELERFNTQHDLIEALLKGEVDYIPMDTAMLNHFLRLSELVPIEQDTAIGEFYSSQLSIGLVANERGAMLAPYFSRAIAMLGVDKIVAQYDLRPDWRTALEYEVRLATQTQAVFLFVLVLAICVSLYLYRQSNTDNLTGLRNRRSLQVKYRQGVNKDLAILYLDINHFKQINDTYGHLAGDEVLQLLSLKIHRVWSGRSYRIGGDEFILLGYPTQIELSRAVQELSRLDVTDKLCAELKTVTISVGVSEKRKQHMSLEQALHLADEDMYVSKHSSRHYSGSSNYLVQS	failed
MGHHHHHHSHGFNKFGGPRDQGSRHDSEQDNSDNNTIFVQGLGENVTIESVADYFKQIGIIKTNKKTGQPMINLYTDRETGKLKGEATVSFDDPPSAKAAIDWFDGKEFSGNPIKVSFAT	failed
MLKDNLKEWFGFDEFKEGQEEIIDSVLHGRHTLGILPTGSGKSLCYQLPTYILEKPTLIISPLISLMDDQVMQMKLKGETHVACVHSGMDEVEKRDNIKRLSKSRFIYLSPEYILQPHNFKYIAHINFGLIVLDEAHCLSEWGYDFRPHYALVGKIIHHFNSATVLALTATAPPQLETDLSHILSLKLNVVQKSMNRENISLQHYNFNDDEGKIEWLLPFLSNSGPTIIYVSSKKRCLELAQMIYDSGYLTGIYHGDLSYQERQTVQQQFFNNDIPVIVATSAFGMGINKKDIRTVIHFHLSSSPSNYLQEIGRAGRDGKQSQAISLFQPDDSFILETLLFTDIITDDDITMFETGNHLPDEKEKILSTLNIQFTFSQLKDIFHQSYQRKRLGYMRMMGYTNLDQCRRKYLLEFFGEHPQSPKQCCDQDSRLEPIQILNRKKVKRKLSFNEKLYNLFET	failed
MLAIFQKAFAHPPEELNSPASHFSGKTPKLPGETLSDFLSHHQNNAFSMNFGDSAVLAYARQETSLRQRLFCGLDGIYCMFLGRLNNLCTLNRQYGLSGKNSNEAMFVIEAYRTLRDRGPYPADQVLRGLEGSFAFVVYDTQTSSVFSALSSDGGESLYWGISGDGSVVMSDDIQIIKQGCAKSFAPFPNGCMFHSETGLKSFDHPTNMMKAMPRIDSEGVLCGASFKVDACSKINSIPRRGSEANWALANSR	failed
MNDRPNNYILTRESGFKVITELTKGQNCNGAETHPINGELYFNSWNAGQVFRYDFTTQETTPLFTIQDSGWEFHIQFHPSGNYAYIVVVNQHYILRSDYDWKTKRLTTPYIVCGQQGAKDWVDGVGKKARMHAPRQGTFVKNPAYKGSSDEYDFYFCDRENHCIRILTPQGRVTTFAGRGSNGTSGYNDGDLRQEARFNHPEGIVYDEERECFFIGDRENRRIRKIGLEHHHHHH	not failed
MQLESLYQFLYSVVMSYLVSLKYVSFVLISVILVFRKIIRTVKGGRFRRYSIFIPPILYILFSIAVSYGTSLLGIVLSLIAFVFGIYISFHTTRSIVFFSKNNILYYKRPGWVVAIWSLAFLTRLALILFFPSFNGDLFTVLLFLASGLIIGESFWIVRKNREILSTVRMPKIHL	failed
MGILDRFEKGLENVVNGAFAKAFRSQVEPVELAGALRREADNKAAVVSRGRTLTANHYSIELSPTDFDRLSGLENELRSDLRQVIGDHAVEQAYSFVGPVSVEFVEAEDLDTGMYRVVSSTQRPDGSPAAQPANRGGYDPVSRSHNIVGEGQANSGSRPVPPRRTPEPAPARPAATSRPASAPVRQAAPARSRTISASVTIHGQDYELHQGTNVFGRSSSSSDYVIDDPGVSRRHFEITVERDHAVANDLGSTNGTLLRGRKLTSANLSDGDVLMAGDAEVRYHENEQDAQ	failed
MMTRNKEFPMQMQSVTPARLVTTGLAFGESPRWHGGRLWVCNWGTSEIIATDAHGNREIMLIVPAVLPYSIDWLQDGRLLVVSGREGLLLRQEVDGKLVTHADLRGLSKSPWNEIVVDGRGNIYVNGGGPAPAAGEYFGPGTVVLITADGAVRQVADDIAFANGMAVTPDNKTLILAESHGNRLTAFDIAADGSLSNRRAWADLDGYPDGICLDAEGAVWYADVPNKHCVRVREGGEVLQTVTVDRGCFACMLGGADRRTLFIVAAEWRGFEHMVGDARTGQVLSVDAPAPGVGWP	failed
MTQRKVYAPVPVMVAGIAIIATRFLGILLLVWELGLSDLSGWIGSNAEAWDSTLVLLLSLIIVGVEIRCGFAVLAGVNWGRWGYIACQGVVVCYLLLASLSEFMPAIFHISGENHAAVLHQLLMQKIPDLLVIVLLFLPRRSKRFFLRQK	failed
MQRTGELPAEHVPVILESSGAGDFHLIDSGNGLKLEQYGDYRVVRPEAQALWRPLVPDRVWQNADAIFTGDTDEDGMGRWRFPKEALGETWPLSLLGVEFLGRFTAFRHVGVFPEQIVHWEWLKNAVETADRPLKVLNLFGYTGVASLVAAAAGAEVTHVDASKKAIGWAKENQVLAGLEQAPIRWICEDAMKFIQREERRGSTYDIILTDPPKFGRGTHGEVWQLFDHLPLMLDICREILSPKALGLVLTAYSIRASFYSMHELMRETMRGAGGVVASGELVIREAGLDGKTPGRVLSTSLFSRWEPK	not failed
IRQARDLLVASMRNPPSLELLAQKTGLNVRKLNLGFRRMYRATAYGFLQEYRLEQAYKLISSGEMSVSQAAYHVGYGAAHFATVFRKRFGVSPSRLR	failed
MGERIALATREGAPLAAYHAPPLEARRGGIVMLHAIWGVTPHLRQLSDSLAEQGYEVMLPSLMDAADAAFPVEDTTPSILDARMAMGERTGWGASTLPRVQACIDALNGPVYAMGFCYGGTTAWLAACRCEGLSAVSAFYGGDIAAYRDETPKVPTILHFGKTDTMIPLSAVDAVRDRHPDLPVYLYDAGHAFVAPSGHHPDSARLALLRTLQLFQR	failed
MGLKIIHNEGIEMKLQLKADLGLLLVTFFWGASILLTKVGLEGIEEYNLIALRFIIAFLLSGLIFYKHLFKIDFKTVKYAFILASVLFIVYIFATFGTKYTSVSNAGFLLCLTVIFIPILSAIFLKHIPEQKVIVGIILTIIGIGLLTLTSEFKIGNGDIFCILSALFYAIHVIITGSVTKHVNSIALGVVQLGFVGLFSLIFSFIIETPKLPSTINSWLIILALSIFCTAVAFIVQVIAQQYTTPTHTGLIFSLEPVFSAGFAFVFTGETLTRKGYLGATLILVSVLIAEVDFKSLLRVNYKKNVE	failed
